Assay [1] addresses TSHR (thyroid stimulating hormone receptor), full length human (human) (UniProt P16473). The assay is described as follows: competitor ^125I-K1-70 IgG, TSHR coated tubes; 0.1 µg/mL in assay buffer.
The target of assay [2] is TSHR (full length) coated on tubes (human) (UniProt P16473). Nature of the assay: inhibition of 125I-K1-18 Fab (competitor) binding to TSHR coated tubes; test sample 0.1 µg/mL in assay buffer.
Assay [3] addresses TSH receptor (TSHR), full length human, coated on tubes (human) (UniProt P16473). The assay is described as follows: inhibition of 125I-K1-18 IgG binding to TSHR coated tubes; competitor 125I-K1-18 IgG; sample at 100 µg/mL in assay buffer.
The target in assay [4] is TSH receptor (full length human TSHR) (human) (UniProt P16473). The assay is described as follows: competition ELISA: inhibition of M22 Fab-peroxidase (competitor) binding to TSHR coated wells; test sample at 0.1 µg/mL diluted in assay buffer.
In assay [5] the target is TSH receptor (full length human TSHR) coated on tubes (human) (UniProt P16473). Nature of the assay: 125I-TSH binding inhibition read against NIBSC 90/672; 100 ng/mL, in serum.
Assay [6] deals with human TSH receptor (full length) coated on ELISA plate wells (human) (UniProt P16473). The assay is described as follows: TSH-biotin binding inhibition ELISA, TSHR coated wells; 0.03 µg/mL in assay buffer + 100 µg/mL 5B3 IgG.
For assay [7], the target named is TSH receptor (TSHR), full length human, coated on tubes (human) (UniProt P16473). Nature of the assay: inhibition of 125I-TSH binding to TSHR coated tubes; 10 µg/mL, diluted in assay buffer.
The target is the same in assay [8]. The assay is described as follows: inhibition of 125I-TSH binding to TSHR coated tubes; 100 µg/mL, diluted in assay buffer.
For assay [9], the target named is TSHR (thyroid stimulating hormone receptor), full length human (human) (UniProt P16473). Nature of the assay: negative control; competitor ^125I-K1-70 IgG, TSHR coated tubes; 1 µg/mL in assay buffer.
Assay [10] addresses thyroid stimulating hormone receptor (TSHR), full length human TSHR (human) (UniProt P16473). The assay is described as follows: TSH-biotin competition ELISA, TSHR coated wells; negative control, 100 µg/mL in HBD serum. For orientation: ELISA stands for enzyme-linked immunosorbent assay.
Assay [11] has the same target. The assay is described as follows: TSH-biotin competition ELISA, TSHR coated wells; negative control, 0.01 µg/mL in assay buffer.
Assay [12] has as its target human thyroid stimulating hormone receptor (TSHR), full length (human) (UniProt P16473). Nature of the assay: 125I-K1-70 Fab (competitor) binding to TSHR coated tubes; negative control MAb 0.1 µg/mL in HBD serum.
Assay [13] has the same target. The assay is described as follows: 125I-K1-70 Fab (competitor) binding to TSHR coated tubes; negative control MAb 1 µg/mL in assay buffer.
For assay [14], the target named is human TSH receptor (full length) coated on ELISA plate wells (human) (UniProt P16473). Nature of the assay: TSH-biotin binding inhibition ELISA, TSHR coated wells; 100 µg/mL in assay buffer; negative control MAb.
Assay [15] addresses TSHR (full length) coated on tubes (human) (UniProt P16473). Nature of the assay: inhibition of 125I-K1-18 Fab (competitor) binding to TSHR coated tubes; negative control 100 µg/mL in assay buffer.
The target in assay [16] is human TSH receptor (full length) coated on ELISA plate wells (human) (UniProt P16473). The assay is described as follows: TSH-biotin binding inhibition ELISA, TSHR coated wells; 10 µg/mL in assay buffer + 100 µg/mL 5B3 IgG; negative control MAb.
Assay [17] deals with TSH receptor (TSHR) coated on tubes (human) (UniProt P16473). Nature of the assay: inhibition of 125I-K1-70 IgG binding to TSHR coated tubes; negative control 100 µg/mL in HBD serum pool; duplicate determination.
Assay [18] deals with TSH receptor (TSHR), full length human, coated on tubes (human) (UniProt P16473). The assay is described as follows: inhibition of 125I-K1-18 IgG binding to TSHR coated tubes; competitor 125I-K1-18 IgG; negative control sample at 100 µg/mL in assay buffer.
Assay [19] deals with TSH receptor (full length human TSHR) (human) (UniProt P16473). The assay is described as follows: competition ELISA: inhibition of M22 Fab-peroxidase (competitor) binding to TSHR coated wells; negative control at 1 µg/mL diluted in assay buffer.
Assay [20] deals with TSH receptor (TSHR), full length human, coated on tubes (human) (UniProt P16473). The assay is described as follows: inhibition of 125I-K1-18 IgG binding to TSHR coated tubes; competitor 125I-K1-18 IgG; negative control sample at 10 µg/mL in HBD serum; mean of duplicate.
Assay [21] has as its target human TSH receptor (full length) coated on ELISA plate wells (human) (UniProt P16473). The assay is described as follows: TSH-biotin binding inhibition ELISA, TSHR coated wells; 10 µg/mL in assay buffer.
Assay [22] shares this target. Nature of the assay: TSH-biotin binding inhibition ELISA, TSHR coated wells; 0.01 µg/mL in HBD serum pool.
Assay [23] deals with TSH receptor (TSHR), full length human, coated on tubes (human) (UniProt P16473). The assay is described as follows: inhibition of 125I-TSH binding to TSHR coated tubes; 1 µg/mL, diluted in assay buffer.
The target is the same in assay [24]. Nature of the assay: inhibition of 125I-TSH binding to TSHR coated tubes; 0.001 µg/mL, diluted in assay buffer.
Assay [25] concerns the target TSH receptor (TSHR) coated on tubes (human) (UniProt P16473). Nature of the assay: inhibition of 125I-K1-70 IgG binding to TSHR coated tubes; sample 0.01 µg/mL in assay buffer.
For assay [26] the target is unchanged. Nature of the assay: inhibition of 125I-K1-70 IgG binding to TSHR coated tubes; sample 10 µg/mL in HBD serum pool.
Assay [27] has as its target TSH receptor (TSHR), full length human, coated on tubes (human) (UniProt P16473). The assay is described as follows: inhibition of 125I-K1-18 IgG (competitor) binding to TSHR coated tubes; test sample at 0.01 µg/mL in HBD serum pool.

Here are results for four molecules from patent publication US20110300138A1 (published 2011).

For 9D33 IgG (antibody), the Inhibition of binding (%) was 24.8% in assay [1], 48.6% in assay [2], 72.5% in assay [3] and 35.1% in assay [4].
For the molecule M22 IgG (antibody), in assay [5], the units/L stood at 9.9 units/L and the units/mg stood at 99 units/mg. Moreover, the % inhibition of TSH-biotin binding in assay [6] was determined as 43.6%.
For the molecule 5B3 IgG (antibody), the Inhibition of binding (%) in [7] was -5.7%; in assay [8], 22.4%; in [9], 4.2%; in assay [10], -2.3%; in [11] it was -5.9%; in [12], -8.7%. The Inhibition of binding (%) in assay [13] is -1.7%; in assay [15], 6.3%; in assay [17], 1.1%; in [18], 6.7%; in assay [19] it was 3.4%; in assay [20], -0.1%. Also, the % inhibition of TSH-biotin binding is 8.3% in assay [14] and -4.8% in assay [16].

B1: 5C9 IgG (antibody, from another filing, V domains shown)
VH: EVQLVESGGGLIQPGGSLRLSCAASGFTVSSNYMSWVRQAPGKGLEWVSVTYSGGSTSYADSVKGRFTISRDNSKNTLYLQMNSLRAEDTAVYYCARGGRYCSSISCYARSGCDYWGQGTLVTVSS
VL: AIQMTQSPSSLSASVGDRVTITCRASQSISNYLNWYQQKPGKAPKLLIYAASSLQSGVPSRFSGSGSGTDFTLTISSLQPEDFATYYCQQSYSSPSTTFGQGTKLEIK
With B1, the % inhibition of TSH-biotin binding amounted to 58.2% in [21] and 7.5% in assay [22]. The Inhibition of binding (%) in [23] is 38.7%; in [24], -11.2%; in assay [25], 4.5%; in [26], 22.7%; in assay [27], -1.8%.
